The values below come from article doi:10.1101/2023.07.15.549169.

One series deals with SMAD4 R100T;SMAD3 WT. The experiment in a line: TR-FRET.
Another series deals with SMAD4 WT;SMAD3 P124S. The experiment in a line: TR-FRET.

Regarding 5'-FAM-SBE4, the binding signal (% of WT PDI signal) in the series on SMAD4 R100T;SMAD3 WT and in the series on SMAD4 WT;SMAD3 P124S was 25 each time.
